Values quoted from earlier work, collected in publication PMC4221657.

Legend:
[1] = molecular target: VPAC1 receptor (Homo sapiens) (UniProt P32241)
[2] = molecular target: PAC1 receptor (Homo sapiens) (UniProt P41586)
[3] = molecular target: VPAC2 receptor (Homo sapiens) (UniProt P41587)
UniProt P41587, sequence (P41587 24-438): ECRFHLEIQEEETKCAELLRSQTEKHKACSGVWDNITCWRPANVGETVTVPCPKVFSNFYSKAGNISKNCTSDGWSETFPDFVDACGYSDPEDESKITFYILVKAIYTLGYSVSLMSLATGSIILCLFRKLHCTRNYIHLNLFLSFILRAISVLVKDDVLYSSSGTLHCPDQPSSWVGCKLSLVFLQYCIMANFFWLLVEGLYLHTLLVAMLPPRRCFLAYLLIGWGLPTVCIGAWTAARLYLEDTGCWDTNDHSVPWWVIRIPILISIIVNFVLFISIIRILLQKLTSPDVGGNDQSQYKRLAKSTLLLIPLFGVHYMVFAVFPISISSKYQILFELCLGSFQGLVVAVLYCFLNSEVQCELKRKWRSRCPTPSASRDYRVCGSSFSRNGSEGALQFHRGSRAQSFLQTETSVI

UniProt P32241, sequence (P32241 31-457): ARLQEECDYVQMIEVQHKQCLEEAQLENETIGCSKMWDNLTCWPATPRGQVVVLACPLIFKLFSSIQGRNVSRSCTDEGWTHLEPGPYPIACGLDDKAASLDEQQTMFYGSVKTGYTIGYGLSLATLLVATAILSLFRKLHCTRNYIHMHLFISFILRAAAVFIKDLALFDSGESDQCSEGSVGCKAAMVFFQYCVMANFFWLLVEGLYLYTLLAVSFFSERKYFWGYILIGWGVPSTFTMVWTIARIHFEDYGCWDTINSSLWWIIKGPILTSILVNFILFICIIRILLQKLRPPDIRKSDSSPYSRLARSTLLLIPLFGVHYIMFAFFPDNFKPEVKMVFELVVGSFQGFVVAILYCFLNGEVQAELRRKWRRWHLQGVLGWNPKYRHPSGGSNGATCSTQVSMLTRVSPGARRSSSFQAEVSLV
UniProt P41586, sequence (P41586 21-468): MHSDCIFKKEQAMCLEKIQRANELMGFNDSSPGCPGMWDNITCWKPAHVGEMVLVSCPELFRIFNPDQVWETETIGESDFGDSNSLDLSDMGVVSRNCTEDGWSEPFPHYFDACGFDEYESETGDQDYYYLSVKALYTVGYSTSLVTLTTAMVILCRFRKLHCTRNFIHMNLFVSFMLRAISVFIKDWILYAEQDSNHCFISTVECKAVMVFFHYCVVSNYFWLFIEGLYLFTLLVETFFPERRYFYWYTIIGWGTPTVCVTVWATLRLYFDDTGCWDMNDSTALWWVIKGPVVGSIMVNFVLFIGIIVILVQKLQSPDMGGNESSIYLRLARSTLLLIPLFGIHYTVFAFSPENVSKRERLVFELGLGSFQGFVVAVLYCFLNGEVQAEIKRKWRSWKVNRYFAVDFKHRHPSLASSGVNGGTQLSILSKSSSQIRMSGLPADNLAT

For PACAP38 (from UniProt P18509), the Kd [1] is listed as 1 nM, the Kd [2] is listed as 0.5 nM and the Kd [3] is listed as 1 nM.
